Results published in the supplement of paper PMC12764529.
± gives the half width of the 95% confidence interval.

What was measured:
[1] = folding stability dG unfold from chymotrypsin proteolysis; higher = more stable
Procedure, shortened: (§1)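 Unfolding free energy was derived, per protease or combined, against a sequence-predicted unfolded-state K50 and a shared folded-state K50, starting from K50 inferred by Bayesian fitting of sequencing counts. Digestion with trypsin and chymotrypsin was carried out on designed mini-proteins under 80 residues without cysteine in a PA-tagged cDNA display construct. Only designs with AlphaFold2 dimer inter-PAE above 15 were kept.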

[2] = folding stability dG unfold from trypsin proteolysis; higher = more stable
Procedure, shortened: as §1

[3] = folding stability dG unfold (combined trypsin and chymotrypsin); higher = more stable
Procedure, shortened: as §1

Row | Sequence | folding stability dG unfold [1] [kcal/mol] | folding stability dG unfold [2] [kcal/mol] | folding stability dG unfold [3] [kcal/mol]
1 | SAGGMELTIPLPNGKLLKIKVEEVKAEPVLVEFELRDANGKLIDTIPAPSGFKISIRFSVEIYDPNEYSAGG [r13_848_TrMRF] | 3.908 ± 0.032 | 2.92 ± 0.091 | 3.61 ± 0.077
2 | SAEVVIVIEPGMTEEQVRARLKAALEEALRKGKKVKKIVVKSEEAARRIRDLLKELGVPEEDVEVVLLPSAG [r14_589_TrROS_Hall] | 3.45 ± 0.17 | 4.92 ± 0.51 | 4.93 ± 0.36
3 | SAGGGGSMTIVVPVEVSPETSEEEVRKRAEEIARPIAEELGKKVSIEVSREEDPEGGRRWTATITILSAGGS [r16_279_JUSTAS] | 2.6 ± 0.017 | 2.88 ± 0.056 | 2.71 ± 0.046
4 | SAGGSMIEVERDPNDPNRYRARLPVIEENPPEPKLVYVDVYVDPENGLVYARAVTEDGGEAEFRFESAGGSA [r2_428_TrMRF] | 1.03 ± 0.16 | 0.448 ± 0.12 | 0.786 ± 0.17
5 | SMNIVEIEVEEKIIGDTTTITIPIKVNGPAVSEEEIKKIVEDIFKKKGLKINIKIEKDPNSGVITITIIESA [r9_717_JUSTAS] | 2.55 ± 0.12 | 2.01 ± 0.15 | 2.33 ± 0.19
6 | SAGGNMWMVRVKIDDGKTFMITSPEDIEEYLKKKLGPNYKIKEVEWHRMPPPNGPPMPMHEFEIEVPSAGGS [r16_408_TrROS] | 2.02 ± 0.1 | 1.28 ± 0.062 | 1.76 ± 0.16
7 | SAGGSAGGSANMPPEELADWIADKFQQRHGHPVKEIEVEHDPENNNYTITVEFDDKERTITLSAGGSAGGSA [r18_145_TrROS] | 0.839 ± 0.28 | -0.271 ± 0.15 | 0.591 ± 0.22
8 | SAGGSWTIDIDPEKVKEVEHKRNPNGMNEHRLELPNKNGKKREVKIPMGMKSPEDALDEIRELLGKSAGGSA [r2_347_TrROS] | 0.663 ± 0.32 | 0.167 ± 0.25 | 0.331 ± 0.39
9 | SAGGSAGGSAGITIWFPYDNIPEILEEAQKNGMEIKSVERVPDGWYLIKMPGKPIEIHIWSAGGSAGGSAGG [r17_379_TrROS] | 1.55 ± 0.06 | 0.94 ± 0.032 | 1.33 ± 0.07
10 | SAGGSAGGSAGEVEIEITKVTENEDGSETLEMTIRDKDTGKTYKLTFNKDNGILTLEEEPSAGGSAGGSAGG [r11_991_TrROS_Hall] | 3.05 ± 0.097 | 1.93 ± 0.13 | 2.43 ± 0.2
11 | SAGGMKIEVRPLPGDGFVVRLPGDVVALIDPSTGEAVAFFPDGSVARLTITRDPDRPEFTITIEPVGSAGGS [r8_186_TrMRF] | 1.89 ± 0.032 | 1.77 ± 0.059 | 1.83 ± 0.069
12 | SAGGSMITFTVTPDATVEFPDGVTVTLIPGEGKWVATAGEKEIEAPYTPLPDDTYVVTLELPEGIAASAGGS [r16_245_JUSTAS] | -0.101 ± 0.27 | 0.337 ± 0.046 | 0.369 ± 0.13
13 | SAGGSAGGSEKIIEELKKKFPGLKIDKIEITVKKKKITIELKPPPKVYLTKEELEKKGYKIEKSAGGSAGGS [r12_3_TrROS_Hall] | 0.449 ± 0.33 | 1.33 ± 0.041 | 0.87 ± 0.22
14 | SAGGMPENMKWRPIPFTQKNPDGLTLKMKIWVFPDPYILIEHEVEDNGKPVAEIPILLPADDPEDLKSAGGS [r16_714_TrROS] | 0.513 ± 0.42 | -0.66 ± 0.6 | 0.389 ± 0.2
15 | SAGGSAGGSAKKVKIEEKDGELTITVEPGEKVLIVYPDGTVEEVEVKEGDTITLPPGAKVLPSAGGSAGGSA [r18_452_TrROS_Hall] | 1.63 ± 0.12 | 0.513 ± 0.11 | 1.33 ± 0.24
16 | SAGGSAGGSAMKVLVTVTLTSPDGTKTTLTEEADPAELKGVLEAALPWTVETVTVYPAEELLSAGGSAGGSA [r18_107_JUSTAS] | 0.509 ± 0.12 | 1.35 ± 0.051 | 1.04 ± 0.089
17 | SAGMPPTTVEVKVTVVKTPEGYEVVAEVVTPDRTETLTIPPHLGLEEAKARLEAVLAERGLTLVDWTLESAG [r5_305_JUSTAS] | 2.65 ± 0.041 | 2.71 ± 0.047 | 2.65 ± 0.057
18 | SAKKTITITKITLTLFNKDGKPVATAEITSIEITYDPKTNTFTITATVKVTLPNGKTFTFKLTITLPVKSAG [r14_609_TrROS_Hall] | 4.87 ± 0.21 | 3.91 ± 0.18 | 4.55 ± 0.41
19 | SAGGSAGGSAGGELKLLRIEVTGRAPYPTELLKTVEIVLPNEDVTEEQIRELLKELGIELSAGGSAGGSAGG [r7_903_TrMRF] | -0.505 ± 0.26 | 0.226 ± 0.046 | 0.0188 ± 0.19
20 | SAGGKKKKKKPKIVRVKITLKNENGEEIEIDEAVILPDGTILIRDKKTGKIFEIKLDDITKIEIEEVSAGGS [r8_410_TrROS_Hall] | 3.02 ± 0.098 | 1.99 ± 0.086 | 2.8 ± 0.17
21 | SAGGSAEPRPVVVVFEGTEEEVEELVQKVRDEGFAIDFKVEPLPDPRYYRATVIVRDPDGSWTAKLSAGGSA [r15_177_TrMRF] | 2.11 ± 0.041 | 2.07 ± 0.046 | 2.12 ± 0.04
